# In patent US20250145697A1 (WASHINGTON UNIVERSITY, published 2025):
# T1: murine ApoE (mouse, UniProt P08226 19-311)
# T1 sequence (looked up): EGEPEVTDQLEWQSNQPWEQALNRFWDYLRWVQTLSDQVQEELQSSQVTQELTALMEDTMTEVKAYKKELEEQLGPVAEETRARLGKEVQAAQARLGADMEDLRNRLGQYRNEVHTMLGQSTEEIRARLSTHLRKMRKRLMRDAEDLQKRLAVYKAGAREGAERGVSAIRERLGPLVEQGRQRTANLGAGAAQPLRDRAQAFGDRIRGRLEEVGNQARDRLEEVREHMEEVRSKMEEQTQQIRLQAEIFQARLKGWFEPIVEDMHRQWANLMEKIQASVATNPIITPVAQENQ
# How the values were obtained:
# [1] = target: T2, heat-induced aggregates of ApoE4 (human, UniProt P02649 19-317); experiment: ELISA: ApoE4 incubated at 40 C for 24 hr on the plate, antibody titrated, OD650
# T2 construct: mature; aggregated state of the recombinant protein; also called ApoE4 incubated at 40 C for 24 hr; heat-treated ApoE4
# Description: 1: untreated ApoE4. 2: ApoE4 that has been incubated at 40° C. for 24 hr. Supernatant(S) and pellet (P) from ultracentrifugation were resolved on SDS-PAGE and stained by Coomassie blue. (D) Binding of HJ156 to different preparations of ApoE4 loaded at the same concentration on the ELISA plate. Sup of untreated: Supernatant fraction of untreated ApoE4 from ultracentrifugation. Sup/Pel of 24h 40C: Supernatant/pellet fraction of ApoE4 incubated at 40° C. for 24 hour. (E) Binding of HJ156 to untreated and 40° C. incubated ApoE4 with and without denaturation by 1% SDS or 4M guanidine HCl.
# In order to test whether HJ151 and HJ156 bind to some form of ApoE in the brain, unfixed frozen brain sections from APPPS1/APOE4 or APPPS1/EKO mice using HJ151 and HJ156 (FIG. 38A). The presence of Aβ plaques was confirmed with Aβ immunostaining using anti-Aβ antibody HJ3.4 on the sections from the same brain. […] Next, the ability of HJ156 to bind to an aggregated form of ApoE induced by incubation at 40° C. was queried. The binding of untreated ApoE to HJ151, HJ153 or HJ156 was compared to the binding of ApoE incubated at 40° C. to HJ151, HJ153 or HJ156. HJ153 bound to untreated ApoE or ApoE incubated at 40° C. similarly while HJ151 and HJ156 preferentially bound to ApoE incubated at 40° C. (FIG. 38B). […] Solubilization of the ApoE aggregates reduced their binding to HJ156. […]
# [2] = target: T2, heat-induced aggregates of ApoE4; experiment: ELISA: pellet fraction of ApoE4 incubated at 40 C for 24 h loaded at the same concentration on the plate, HJ156 titrated, OD650
# [3] = target: T3, recombinant alipidated human ApoE3 (human, UniProt P02649 19-317); experiment: ELISA: untreated ApoE3 coated at 0.5 ug/ml, antibody titrated, HRP goat anti-mouse IgG, OD650
# T3 construct: mature; full length recombinant protein made in E. coli or bought
# T3 sequence (P02649 19-317): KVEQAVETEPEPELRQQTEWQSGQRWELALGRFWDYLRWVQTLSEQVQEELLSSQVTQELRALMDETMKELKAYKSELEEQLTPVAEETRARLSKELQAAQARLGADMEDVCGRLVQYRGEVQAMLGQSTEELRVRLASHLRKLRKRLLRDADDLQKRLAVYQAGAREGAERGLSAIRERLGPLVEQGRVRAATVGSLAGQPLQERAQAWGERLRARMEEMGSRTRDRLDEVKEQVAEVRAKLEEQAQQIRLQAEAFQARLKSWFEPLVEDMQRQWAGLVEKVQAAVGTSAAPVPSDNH
# Description: (§1) The aggregated ApoE was induced by incubating ApoE at 1 mg/ml concentration at 40° C. for 24 hours. The aggregates then were recovered in the pellet fraction following ultracentrifugation at 186,000 g for 1 hour. For ELISA, the untreated ApoE or heat-induced aggregates of ApoE were coated directly to ELISA plates at 0.5 μg/ml overnight at 4° C. After three washes with PBS, the wells were blocked with 1% BSA-PBS for 1 hour at room temperature with shaking at 500 rpm. The blocked wells were washed once with PBS and subsequently loaded with antibodies at serial concentrations (starting at 100 nM with 5-fold dilutions thereafter). Bound antibodies were detected with HRP-labeled goat anti-mouse IgG (Jackson Immunoresearch) and visualized with TMB substrate at OD₆₅₀ (reaction stopped with BioFX stop solution).
# [4] = target: T4, recombinant alipidated human ApoE2 (human, UniProt P02649 19-317); experiment: ELISA, plate coated with 0.5 ug/ml recombinant apoE2, HRP goat anti-mouse detection, OD450
# T4 construct: mature; full length recombinant protein made in E. coli or bought
# Description: ELISA plates were coated with 0.5 μg/ml of recombinant apoE2 (square), apoE3 (open circle), or apoE4 (closed circle). Then different concentrations of (A) HJ151, (B) HJ153, (C) HJ154, or (D) HJ156 were loaded on the plates. Horse-radish peroxidase labeled goat anti-mouse secondary antibodies were used to detect binding. […] HJ151 is specific for ApoE4 and HJ156 binds only ApoE3 and ApoE4. FIG. 5E-H are graphs depicting surface plasmon resonance profiles for various antibodies. Anti-ApoE antibodies were serially diluted 3-fold (starting at 100 nM for HJ153 (E), and 1000 nM for HJ151 (F), and […] (G)) for detection of binding to biotinylated-recombinant apoE4 captured on a streptavidin chip. Samples were injected at a flow rate of 30 μl/minute. (H) Apparent KD values of HJ151, HJ153 and HJ156 were calculated based on the SPR experiment.
# ELISA plates were coated with 0.5 μg/ml of recombinant apoE2, apoE3, or apoE4. Then different concentrations of HJ151 (FIG. 5A), HJ153 (FIG. 5B), HJ154 (FIG. 5C), or HJ156 (FIG. 5D) were loaded on the plates. Horse-radish peroxidase labeled goat anti-mouse secondary antibodies were used to detect binding. […] HJ151 is specific for ApoE4 and HJ156 binds only ApoE3 and ApoE4. Surface plasmon resonance profiles for various antibodies was also performed.
# murine ApoE = target: T1, murine ApoE; experiment: Western blot of mouse brain lysates
# Description: Brain lysates from apoE KO mice or mice expressing human apoE3, human apoE4 or murine apoE were immunoblotted with HJ151, HJ152, HJ153, and HJ154. A commercial apoE antibody GA-50 was used as a positive control.
# [5] = target: T4, recombinant alipidated human ApoE2; experiment: ELISA: untreated ApoE2 coated at 0.5 ug/ml, antibody titrated, HRP goat anti-mouse IgG, OD650
# Description: as §1
# Target sequence in this assay (P02649 19-317 R176C): as the sequence (P02649 19-317) above, with R158C counted along it
binder,measurement,setting,value
"HJ151 (antibody, V domains shown, murine monoclonal antibody from hybridoma; also called HJ151B (biotinylated)) VH: QVQLQQSGAELVRPGASVTLSCKASGYTFTDYEMHWVKQTPVHGLEWIGVIDPEKGGTAYNQKFKGKAILTADKSSSTAYMDLRSLTSEDSAVYYCLKDSWGQGTTLTVSS VL: DVLMTQTPLSLPVSLGDQASISCRSSQTIVHSDGNTYLEWYLQKPGQSPKLLIYKVSNRFSGVPDRFSGSGSGTYFTLKISRVEAEDLGVYYCFQGSHVPCTFGGGTKLEIKR",EC50 (read off the curve),[1],~200 pM
"HJ156 (antibody, V domains shown, murine monoclonal antibody from hybridoma; also called HJ156B (biotinylated)) VH: QVQLQQSGPELVKPGASVKISCKASGYIFTDYYINWVKRRPGQGLEWIGWIFPGSGVSYYNEQFKGKATLTVDKPSNTAYIFLSRLTSEDSAVYFCARYYSSSPFAYWGQGTLVTVSA VL: DVLMTQTPLSLPVSLGDQASISCRSSQNIIHSNGNTYLEWFLQRPGQSPELLIYKVSNRFSGVPDRFSGSGSGTDFTLKISRVEAEDLGVYYCFQGSHVPYTFGGGTKLEIKR",EC50 (read off the curve),[2],~100 pM
"HJ154 (antibody, V domains shown, murine monoclonal antibody from hybridoma; also called HJ154B (biotinylated)) VH: QVQLQQPGTEFVMSGASVMLSCKASGYIFTNYWLHWVKQRPGHGLEWIGEIDPSDSYSICNDNFKGKSTLTVDKSSSTAYMQLSSLTSEDSAVYYCAGSLGRVGLAYWGQGTLVTVST VL: QIVLTQSPAIMSASPGEKVTMSCSASSSVSNMYWYQQKPGSSPKSWIYRTSNLASGVPARFSGSGSGTSYSLTISNMEAEDAATYYCQHYQNYPLTFGAGTKLELKR",EC50 (read off the curve),[3],~500 pM
same,EC50 (read off the curve),[4],~300 pM
same,binding result,murine ApoE,no binding
same,EC50 (read off the curve),[5],~200 pM
